Results reported in patent US20020165132A1.
Positions of bridges follow the written chain, without caps; N, C: chain ends. Non-standard residues stand in square brackets, D forms with d. No end group written: not given here. AlaL = alanine half of a lanthionine (monosulfide) bridge; Thr(ol) = C[C@@H](O)[C@H](N)CO; dValL = not defined here

B1: Tyr-c[D-ValL-Gly-Phe-D-AlaL]-OH (peptide)
peptide: Y[dValL]GF[dAlaL]-OH
modifications: thioether 2-5; reading uncertain; also: printed as Tyr-c[D-ValL-Gly-Phe-D-AlaL]-OH
B2: Tyr-c[D-AlaL-Gly-Phe-L-AlaL]-NH2 (peptide)
peptide: Y[dAlaL]GF[AlaL]-NH2
modifications: bridge 2-5; not fully specified (bridges); printed as Tyr-c[D-AlaL-Gly-Phe-L-AlaL]-NH2
B3: Tyr-c[D-ValL-Gly-Phe-L-AlaL]-OMe (peptide)
peptide: Y[dValL]GF[AlaL]-OMe
modifications: thioether 2-5; reading uncertain; also: printed as Tyr-c[D-ValL-Gly-Phe-L-AlaL]-OMe
B4: Tyr-c[D-AlaL-Gly-Phe-L-AlaL]-OH (peptide)
peptide: Y[dAlaL]GF[AlaL]-OH
modifications: bridge 2-5; not fully specified (bridges); printed as Tyr-c[D-AlaL-Gly-Phe-L-AlaL]-OH
B5: Tyr-c[D-ValL-Gly-Phe-L-AlaL]-OH (peptide)
peptide: Y[dValL]GF[AlaL]-OH
modifications: thioether 2-5; reading uncertain; also: printed as Tyr-c[D-ValL-Gly-Phe-L-AlaL]-OH

Key:
[1] = target: SSTR4 Receptor (cloned somatostatin receptor); assay: inhibition of radioligand binding to cloned SSTR4
[2] = target: SSTR2 Receptor (cloned somatostatin receptor); assay: inhibition of radioligand binding to cloned SSTR2
[3] = target: µ-receptor (guinea pig ileum preparation) (guinea pig); assay: cell-based or functional assay
[4] = target: δ-receptor (mouse vas deferens preparation) (mouse) (UniProt P32300); assay: cell-based or functional assay
[5] = target: δ-receptor (mouse vas deferens preparation) (mouse), P32300; assay: cell-based or functional assay
Chain of δ-receptor (mouse vas deferens preparation) (mouse), P32300 (P32300 whole entry, stated change not applied): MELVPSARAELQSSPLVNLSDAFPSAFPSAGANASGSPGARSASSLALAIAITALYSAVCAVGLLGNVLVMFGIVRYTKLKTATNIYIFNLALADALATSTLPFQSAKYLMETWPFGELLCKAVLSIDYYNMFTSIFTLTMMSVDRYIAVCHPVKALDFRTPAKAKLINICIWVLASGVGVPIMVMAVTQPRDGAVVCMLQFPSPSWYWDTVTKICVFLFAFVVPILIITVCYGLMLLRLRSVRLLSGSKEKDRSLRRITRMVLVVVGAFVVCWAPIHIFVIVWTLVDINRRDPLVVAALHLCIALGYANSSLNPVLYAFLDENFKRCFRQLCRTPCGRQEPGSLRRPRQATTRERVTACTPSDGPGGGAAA

Chain of SSTR4 Receptor (cloned somatostatin receptor) (P30938 whole entry): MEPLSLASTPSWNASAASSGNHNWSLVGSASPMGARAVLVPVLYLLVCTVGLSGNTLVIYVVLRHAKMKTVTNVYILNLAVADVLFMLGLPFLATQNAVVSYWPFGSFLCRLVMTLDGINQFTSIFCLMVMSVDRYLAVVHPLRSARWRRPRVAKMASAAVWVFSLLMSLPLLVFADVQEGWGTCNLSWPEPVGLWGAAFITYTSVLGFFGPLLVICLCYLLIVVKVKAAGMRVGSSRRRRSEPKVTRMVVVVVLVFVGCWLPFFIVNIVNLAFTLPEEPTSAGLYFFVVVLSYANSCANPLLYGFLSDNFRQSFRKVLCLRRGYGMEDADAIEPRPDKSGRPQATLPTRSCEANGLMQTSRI
Chain of SSTR2 Receptor (cloned somatostatin receptor) (P30875 whole entry): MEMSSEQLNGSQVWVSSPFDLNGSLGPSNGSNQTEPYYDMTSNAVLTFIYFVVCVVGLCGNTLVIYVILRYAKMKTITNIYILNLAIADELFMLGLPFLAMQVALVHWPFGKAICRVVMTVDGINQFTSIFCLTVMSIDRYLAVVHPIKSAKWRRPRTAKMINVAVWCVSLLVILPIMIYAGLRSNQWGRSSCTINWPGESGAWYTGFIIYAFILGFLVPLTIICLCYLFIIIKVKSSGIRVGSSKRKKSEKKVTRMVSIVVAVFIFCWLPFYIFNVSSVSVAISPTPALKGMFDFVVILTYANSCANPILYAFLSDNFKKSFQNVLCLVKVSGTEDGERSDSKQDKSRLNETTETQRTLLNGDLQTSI
Chain of δ-receptor (mouse vas deferens preparation) (mouse) (P32300 whole entry, stated change not applied): as the sequence (P32300 whole entry, stated change not applied) above

| Binder | IC50 [1] | IC50 [2] | GPI IC50 [3] | also measured |
| --- | --- | --- | --- | --- |
| H-[dF][AlaL]F[dW]KT[AlaL]-OH (thioether 2-7) [H-D-Phe-c[AlaLPhe-D-Trp-Lys-Thr-AlaL]-OH] | 500 nM |  |  |  |
| AGCKNFFWKTFTSC (peptide, UniProt P61278 103-116, looked up, disulfide 3-14 (inferred)) [Somatostatin-14] | 0.86 nM | 0.28 nM |  |  |
| H-[dF][AlaL]F[dW]KT[AlaL][Thr(ol)] (thioether 2-7) [H-D-Phe-c[AlaLPhe-D-Trp-Lys-Thr-AlaL]-Thr-ol] | 1 nM | 5 nM |  |  |
| H-[dF][AlaL]F[dW]KT[AlaL]T-NH2 (thioether 2-7) [H-D-Phe-c[AlaLPhe-D-Trp-Lys-Thr-AlaL]-Thr-NH2] | 0.5 nM | 10 nM |  |  |
| B1 |  |  | 535 nM |  |
| [dF]CF[dW]KTC[Thr(ol)] (disulfide 2-7) [Sandostatin] |  | 2.4 nM |  |  |
| Y[dAlaL]GF[dAlaL]-NH2 (thioether 2-5) [Tyr-c[D-AlaL-Gly-Phe-D-AlaL]-NH2] |  |  | 1.67 nM | MVD IC50 [4]: 1.67 nM |
| B2 |  |  |  | MVD IC50 [5]: 0.54 nM |
| B3 |  |  | 88.1 nM | MVD IC50 [4]: 3.65 nM |
| B4 |  |  |  | MVD IC50 [5]: 0.16 nM |
| B5 |  |  | 39 nM |  |
